Our source for the Kd values is paper PMC12478167.

Assay [1] has as its target sLilrB2, a soluble Fc-tagged form of LilrB2 containing the entire extracellular domain (human) (UniProt Q8N423). Kind of assay: SPR. Background: SPR reads the build-up and loss of mass on a sensor chip optically.
The target in assay [2] is HA-PirB expressed in HEK293 cells (mouse) (UniProt P97484). Kind of assay: immunostaining of cells or tissue.
In assay [3] the target is Myc-tagged LilrB2 expressed in HEK293 cells (human) (UniProt Q8N423). Put plainly: immunostaining of cells or tissue.
The target in assay [4] is endogenous PirB in mouse cortical neurons (mouse (endogenous in cortical neurons)) (UniProt P97484). Kind of assay: immunostaining of cells or tissue.

In general, Kd refers to the constant that tells how readily two partners part at equilibrium. With “C4d, terminal split product of complement component C4 (from UniProt P0C0L4 957-1336) (domain or fragment)”, the Kd was found to be 0.003 µM in assay [1], 0.056 µM in assay [2], 0.037 µM in assay [3] and 0.38 µM in assay [4].
